Molecular target: T1, recombinant human CD73 (rhuCD73) (SEQ ID NO:70) (Homo sapiens, UniProt P21589)
T1 sequence (P21589 27-549): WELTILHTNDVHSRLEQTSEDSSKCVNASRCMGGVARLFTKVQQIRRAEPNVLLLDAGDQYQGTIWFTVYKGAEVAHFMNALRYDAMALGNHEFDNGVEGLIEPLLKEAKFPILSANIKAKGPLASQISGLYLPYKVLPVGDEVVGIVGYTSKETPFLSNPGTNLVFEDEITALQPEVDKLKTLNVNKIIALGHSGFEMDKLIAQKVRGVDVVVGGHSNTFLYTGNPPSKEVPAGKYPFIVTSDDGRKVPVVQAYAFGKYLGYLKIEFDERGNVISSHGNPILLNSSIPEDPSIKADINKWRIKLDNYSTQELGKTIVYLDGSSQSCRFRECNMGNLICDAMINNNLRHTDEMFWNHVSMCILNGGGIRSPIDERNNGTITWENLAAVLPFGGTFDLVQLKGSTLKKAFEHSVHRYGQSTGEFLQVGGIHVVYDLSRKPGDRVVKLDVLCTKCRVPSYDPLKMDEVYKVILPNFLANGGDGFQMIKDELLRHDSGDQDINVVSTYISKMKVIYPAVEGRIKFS
Experiment: Soluble CD73 inhibition (AMP-Glo)
Format: biochemical
Settings: 0.008 μg/mL rhuCD73, 100 μM AMP
Experimental: To measure the ability of the CD73 antibodies to inhibit CD73 activity of recombinant protein, recombinant human CD73 (rhuCD73) (SEQ ID NO:70) was added to 96-well plates at a final concentration of 0.008 μg/mL with the indicated concentration of antibodies (FIG. 4) or adenosine 5′-[α,β-methylene]diphosphate (APCP) and incubated at 37° C. 5% CO2 for 30 minutes. After the 30 minute incubation, AMP was added to a final concentration of 100 μM and the reactions were incubated an additional 3 hours at 37° C. 5% CO2. 25 μL of supernatant was transferred into new 96-well plates. The AMP-Glo Assay was used according to the manufacturer's instructions. RLU is a directly correlated with the AMP concentration in this assay. Results are depicted in FIG. 4.
Results are depicted in FIG. 9.

B1: CL25: chimeric anti-human CD73 monoclonal antibody, murine VH SEQ ID NO:26 and VL SEQ ID NO:27 with human IgG1 Fc (antibody, V domains shown)
VH: QVQLQQSGAELARPGASVKLSCRASGYTFTSYGLSWVKQRTGQGLEWIGEIYPGSGNTYYNEKFKGKATLTADKSSSTAYMELRSLTSEDSAVYFCARYDYLGSSYGFDYWGQGTTLTVSS
VL: DIVMTQSHKFMSTSVGDRVSITCKASQDVSTAVAWYQQKPGQSPKLLIYSASYRYNGVPDRFTGSGSGTDFTFTISSVQAEDLAVYYCQQHYNTPYTFGGGTKLEIK
modifications: human IgG1 Fc constant regions without entry
Q: With B1 as the molecule, how does the “hook-effect in inhibition of recombinant CD73” value read?
A: no hook-effect

Q: And the “inhibition of recombinant CD73” value?
A: high potency
